Results: publication PMC10279719 (Nature Communications, 2023)
Non-standard residues stand in square brackets, D forms with d. pY = N[C@@H](Cc1ccc(OP(=O)(O)O)cc1)C(=O)O

What was measured:
[1] = molecular target: T1, CrkII NSH3 domain (CrkII^NSH3, residues 134–191) (human, UniProt P46108-1 134-191); test: SPR; Biacore S200; CrkII^NSH3 amine coupled to CM5, peptides injected; 20 °C, HBS-TP (20 mM HEPES pH 7.4, 150 mM NaCl, 1 mM TCEP, 0.005% Tween-P20); steady-state 1:1 fit; conditions: both partners purified
T1 construct: human CrkII residues 134-191, N-terminal SH3 domain

[2] = molecular target: T2, CrkII SH2 domain (CrkII^SH2, residues 6-120) (human, UniProt P46108-1 6-120, biotin (EZ-Link NHS-PEG4-Biotin, 1:1 molar ratio) where it was immobilised (a1)); test: SPR; biotinylated adapter proteins captured with a biotin CAPture kit, pY peptides as analytes; Biacore 8K+, 20 °C, HBS-TP (20 mM HEPES pH 7.4, 150 mM NaCl, 1 mM TCEP, 0.005% Tween-P20) with 2% DMSO; 1 M NaCl regeneration; steady state, 1:1 model; conditions: both partners purified
T2 construct: human CrkII SH2 domain, UniProt P46108-1, residues 6-120; The His tag is TEV-cleavable and was cleaved 'when required'

[3] = molecular target: T3, full length Grb2 (Grb2^FL, residues 1-217) (human, UniProt P62993-1 1-217, biotin (EZ-Link NHS-PEG4-Biotin, 1:1 molar ratio) where it was immobilised (a1)); test: as above; conditions: both partners purified
T3 construct: full length human Grb2, UniProt P62993-1, residues 1-217

[4] = molecular target: T4, Grb2 SH2 domain (Grb2^SH2) (human, UniProt P62993-1 60-152, biotin (EZ-Link NHS-PEG4-Biotin, 1:1 molar ratio) where it was immobilised (a1)); test: as above; conditions: both partners purified
T4 construct: SH2 domain of human Grb2; This construct is not in the list of the methods; the other adapter constructs were made in E. coli C41 (DE3) with an N-terminal His8 tag

[5] = molecular target: T5, full length CrkII, monomer (CrkII^FL monomer) (human, UniProt P46108-1 1-304, biotin (EZ-Link NHS-PEG4-Biotin, 1:1 molar ratio) where it was immobilised (a1)); test: as above; conditions: both partners purified
T5 construct: full length human CrkII, printed as UniProt P46108-1, residues 1-330

[6] = molecular target: T6, full length CrkII, dimer (CrkII^FL dimer) (human, UniProt P46108-1 1-304, biotin (EZ-Link NHS-PEG4-Biotin, 1:1 molar ratio) where it was immobilised (a1)); test: as above; conditions: both partners purified
T6 construct: full length human CrkII, printed as UniProt P46108-1, residues 1-330

[7] = molecular target: T1, CrkII NSH3 domain (CrkII^NSH3, residues …); test: ITC; ternary, sequential; CrkII^NSH3 (400 μM, syringe) titrated into the peptide (16.8 µM) left in the cell after a first titration with 14-3-3ɣ; 25 °C, 20 mM HEPES pH 7.4, 150 mM NaCl, 1 mM TCEP; conditions: both partners purified
[8] = molecular target: the molecule itself; test: SEC-MALS; Superdex 200 Increase 10/300 GL, 20 mM HEPES pH 7.5, 150 mM NaCl, 1 mM TCEP, 0.5 ml/min
[9] = molecular target: T1, CrkII NSH3 domain (CrkII^NSH3, residues …); test: SPR; Biacore S200; CrkII^NSH3 amine coupled to CM5, peptides injected; 20 °C, HBS-TP (20 mM HEPES pH 7.4, 150 mM NaCl, 1 mM TCEP, 0.005% Tween-P20); steady-state 1:1 fit; conditions: both partners purified; remark: listed apart in the source

B1: PEAK3^54–66 peptide (Ac-PLPPPLPKKILTR-NH2) (peptide)
peptide: Ac-PLPPPLPKKILTR-NH2
notes: also called PEAK3 PRM peptide; source: synthetic peptide, bought: Mimotopes
Work on B1 yielded a Kd [1] of 1.7 µM.

B2: PEAK3 23-38-pY24 peptide (Ac-T(pY)SNLGQIRAHLLPSK-NH2) (peptide)
peptide: Ac-T[pY]SNLGQIRAHLLPSK-NH2
SMILES: CC[C@H](C)[C@H](NC(=O)[C@H](CCC(N)=O)NC(=O)CNC(=O)[C@H](CC(C)C)NC(=O)[C@H](CC(N)=O)NC(=O)[C@H](CO)NC(=O)[C@H](Cc1ccc(OP(=O)(O)O)cc1)NC(=O)[C@@H](NC(C)=O)[C@@H](C)O)C(=O)N[C@@H](CCCNC(=N)N)C(=O)N[C@@H](C)C(=O)N[C@@H](Cc1c[nH]cn1)C(=O)N[C@@H](CC(C)C)C(=O)N[C@@H](CC(C)C)C(=O)N1CCC[C@H]1C(=O)N[C@@H](CO)C(=O)N[C@@H](CCCCN)C(N)=O
notes: source: synthetic peptide, bought: Mimotopes (95% purity)
B2 gave a Kd [2] of 5.3 µM, a Kd [3] of 2.2 µM and a Kd [4] of 4.2 µM. The Kd [5] was 6.8 µM and the Kd [6] was 6.2 µM.

B3: PEAK3^tandem peptide, non-phosphorylated (residues 54–74; Ac-PLPPPLPKKILTRTQSLPTRR-NH2) (peptide)
peptide: Ac-PLPPPLPKKILTRTQSLPTRR-NH2
notes: source: synthetic peptide, bought: Mimotopes
In the case of B3, the Kd [7] is reported as 0.7 µM.

B4: PEAK2IDR1 (PEAK2 residues 802-1406) (domain or fragment, human, UniProt Q86YV5 802-1406, looked up)
chain: EDVSPSGPQQPPPLPQKKIVSRAASSPDGFFWTQGSPKPGTASPKLNLSHSETNVHDESHFSYSLSPGNRHHPVFSSSDPLEKAFKGSGHWLPAAGLAGNRGGCGSPGLQCKGAPSASSSQLSVSSQASTGSTQLQLHGLLSNISSKEGTYAKLGGLYTQSLARLVAKCEDLFMGGQKKELHFNENNWSLFKLTCNKPCCDSGDAIYYCATCSEDPGSTYAVKICKAPEPKTVSYCSPSVPVHFNIQQDCGHFVASVPSSMLSSPDAPKDPVPALPTHPPAQEQDCVVVITREVPHQTASDFVRDSAASHQAEPEAYERRVCFLLLQLCNGLEHLKEHGIIHRDLCLENLLLVHCTLQAGPGPAPAPAPAPAPAAAAPPCSSAAPPAGGTLSPAAGPASPEGPREKQLPRLIISNFLKAKQKPGGTPNLQQKKSQARLAPEIVSASQYRKFDEFQTGILIYELLHQPNPFEVRAQLRERDYRQEDLPPLPALSLYSPGLQQLAHLLLEADPIKRIRIGEAKRVLQCLLWGPRRELVQQPGTSEEALCGTLHNWIDMKRALMMMKFAEKAVDRRRGVELEDWLCCQYLASAEPGALLQSLKLLQLL
modifications: phosphorylated at the tandem site 14-3-3 motif (RAASSP) by LC MS/MS
notes: PEAK2 (SgK223, PRAG1), human, UniProt Q86YV5, residues 802-1406; Homodimer by SEC-MALS; TEV-cleavable tag
B4 was tested, and the “stoichiometry N” value [8] was 2.

B5: PEAK2^709–721 peptide (Ac-FSPPPPPPKSRHL-NH2) (peptide)
peptide: Ac-FSPPPPPPKSRHL-NH2
notes: human PEAK2 (SgK223, PRAG1) residues 709-721; also called second PRM of PEAK2; source: synthetic peptide, bought: Mimotopes
For B5, the Kd [9] was 13 µM.
